# Data from patent publication US20240181022A1, “AMURINS LYSINS, AND LYSIN-ANTIMICROBIAL PEPTIDE (AMP) CONSTRUCTS ACTIVE AGAINST GRAM-NEGATIVE BACTERIA” (priority 2021, published 2024).
# Where two headings read alike, the source gives them in different places.
# Key:
# P. apista = format: cell-based, Pandoraea apista; details: P. apista (15); 2-hour treatment
# Protocol: (§1) The MBEC (after 2-hour treatments) was determined as described in Jones and Wozniak, PsI Produced by Mucoid Pseudomonas aeruginosa Contributes to the Establishment of Biofilms and Immune Evasion, Am. Soc. Microbiol. 2017, 8(3):e00864-17. Meropenem and tobramycin were included as controls and were both poorly active, with MBEC90 values of >256 μg/mL (data not shown).
# A. xylosoxidans = A. xylosoxidans (15); 2-hour treatment
# Protocol: (§2) Biofilms are then washed and treated with e.g., a 2-fold dilution series of the lysin in TSBg at e.g., 37° C. for 24 hours. After treatment, wells are washed, air-dried at e.g., 37° C. and stained with e.g., 0.05% crystal violet for 10 minutes.
# (§3) The antibiofilm activity of GN370, AM1, AM2, and AM3 was evaluated against various Gram-negative bacteria prevalent in cystic fibrosis patients, including P. aeruginosa, S. maltophilia, and A. xylosoxidans.
# (§4) The MBEC (after 2-hour treatments) was determined as described in Jones and Wozniak, PsI Produced by Mucoid Pseudomonas aeruginosa Contributes to the Establishment of Biofilms and Immune Evasion, Am. […] Microbiol.
# S. maltophilia [1] = tested on: S. maltophilia
# Protocol: as §2, §3, §4
# B. multivorans = B. multivorans (15); 2-hour treatment
# Protocol: as §2, §3, §4
# B. gladioli = format: cell-based, Burkholderia gladioli; details: B. gladioli (15); 2-hour treatment
# Protocol: as §1
# P. aeruginosa [2] = experiment: Time-kill assay in cystic fibrosis patient sputum, P. aeruginosa; format: cell-based, Pseudomonas aeruginosa
# Text: Sputum from 5 cystic fibrosis patients was pooled. The resulting mixture was not filtered, as it was very dense and not amenable to sterilization by filtration. Sputum is known to be a complex mixture of DNA, carbohydrates, and lipids ([…], 2016). As used herein, the term “sputum” refers to the mucus present in the respiratory tract of an animal, such as a human. Sputum may increase in thickness due to the irritation or infection, including bacterial infection, and in some instances, may be expelled by the animal while coughing. In certain instances, cystic fibrosis may be characterized by the presence of a thick, sticky mucus or sputum present in the lungs of cystic fibrosis patients. The activity of GN370, AM1, AM2, AM3, and meropenem was determined in the sputum using a time-kill assay format as disclosed in Zhang et al., Antimicrobial peptide therapeutics for cystic fibrosis, Antimicrobial Agents Chemother. 2005; 49(7):2921-2927. […] Untreated controls were included in addition to pretreatment plating (t=0) for a baseline CFU determination. Activity was also determined in the absence of sputum for comparison to activity observed in the presence of sputum.
# P. aeruginosa [3] = experiment: Serial passage resistance development study, P. aeruginosa; format: cell-based, Pseudomonas aeruginosa
# P. aeruginosa [4] = tested on: P. aeruginosa
# A. dolens = format: cell-based, Achromobacter dolens; details: A. dolens (15); 2-hour treatment
# Protocol: as §1
# B. cenocepacia = format: cell-based, Burkholderia cenocepacia; details: B. cenocepacia (15); 2-hour treatment
# Protocol: as §1
# S. maltophilia [5] = experiment: Serial passage resistance development study, S. maltophilia; format: cell-based, Stenotrophomonas maltophilia; details: S. maltophilia, day 28, triplicate
# [6] = S. maltophilia (26), 2-hour treatment
# [7] = MDR P. aeruginosa isolates (n = 13)
# [8] = Pseudomonas aeruginosa, AR Bank, N 67
# [9] = Pseudomonas aeruginosa, Weill Cornell, N 55
# [10] = Pseudomonas aeruginosa, all isolates, N 122
# [11] = carbapenem-resistant P. aeruginosa isolates (n = 12)
# [12] = mucoid P. aeruginosa isolates (n = 11)
# [13] = α-hemolytic P. aeruginosa isolates (n = 13)
molecule,measurement,setting,value
"GN370: lysin-AMP construct, SEQ ID NO: 149: MIDR, FIRL and NPTH moieties N-terminal to GN202 lysin (protein, GN370 lysin) MIDRFIRLNPTHGPRRPRRPGRRAPVRTSQRGIDLIKSFEGLRLSAYQDSVGVWTIGYGTTRGVTRYMTITVEQAERMLSNDIQRFEPELDRLAKVPLNQNQWDALMSFVYNLGAANLASSTLLDLLNKGDYQGAADQFPHWVNAGGKRLDGLVKRRAAERALFLEPLS",MBEC50,P. apista,32 µg/mL
same,MBEC90,P. apista,64 µg/mL
same,MBEC Range,P. apista,8 to 64 µg/mL
same,MBEC50,A. xylosoxidans,8 µg/mL
same,MBEC90,A. xylosoxidans,>256 µg/mL
same,antibiofilm activity (MBEC) against S. maltophilia,S. maltophilia [1]; 2-hour treatments,highly active
same,MBEC50,S. maltophilia [1]; [6],1 µg/mL
same,MBEC90,S. maltophilia [1]; [6],2 µg/mL
same,MBEC Range,S. maltophilia [1]; [6],0.064-4 ^ μg/mL
same,MBEC50,B. multivorans,8 µg/mL
same,MBEC90,B. multivorans,64 µg/mL
same,MBEC50,B. gladioli,256 µg/mL
same,effect of sputum on antibacterial activity,P. aeruginosa [2]; 10% CF sputum vs no sputum,not inhibited
same,Log10 CFU/mL of sputum,"P. aeruginosa [2]; absence of sputum, 1 hr",2.3 Log10 CFU/mL of sputum
same,Log10 CFU/mL of sputum,"P. aeruginosa [2]; absence of sputum, 3 hr",2.3 Log10 CFU/mL of sputum
same,Log10 CFU/mL of sputum,"P. aeruginosa [2]; absence of sputum, 24 hr",2.3 Log10 CFU/mL of sputum
same,Log10 CFU/mL of sputum,"P. aeruginosa [2]; presence of 10% sputum, 1 hr",3.9 Log10 CFU/mL of sputum
same,Log10 CFU/mL of sputum,"P. aeruginosa [2]; presence of 10% sputum, 3 hr",3.6 Log10 CFU/mL of sputum
same,Log10 CFU/mL of sputum,"P. aeruginosa [2]; presence of 10% sputum, 24 hr",2.3 Log10 CFU/mL of sputum
same,CFU reduction by 3 hours,P. aeruginosa [2]; time-kill,1.5 log10
same,CFU reduction by 24 hours,P. aeruginosa [2]; time-kill,> 3 log10
same,change in MIC over 28-day serial passage,P. aeruginosa [3]; P. aeruginosa (PA453),No change
same,MIC,"P. aeruginosa [3]; P. aeruginosa PA453, target organism of serial passage study",0.125 µg/mL
same,change in MIC over serial passage,"P. aeruginosa [3]; P. aeruginosa strain CFS 1292, Day 28",no significant changes
same,MIC50,P. aeruginosa [4]; [7],0.125 µg/mL
same,MIC90,P. aeruginosa [4]; [7],0.5 µg/mL
same,MIC Range,"P. aeruginosa [4]; MDR P. aeruginosa isolates (n = 13), in µg/mL",0.0625-0.5
same,MIC,P. aeruginosa [4]; P. aeruginosa ATCC 27853 (head of Table 19),1 µg/mL
same,MIC,P. aeruginosa [4]; P. aeruginosa PA25,PA25 (MIC = 2 μg/mL)
same,MIC90,P. aeruginosa [4]; P. aeruginosa clinical and resistant isolates,2 µg/mL
same,MIC50,P. aeruginosa [4]; P. aeruginosa isolates,0.25 µg/mL
same,MIC90,P. aeruginosa [4]; P. aeruginosa isolates,0.5 µg/mL
same,MIC Range,"P. aeruginosa [4]; P. aeruginosa isolates, in µg/mL",0.06-1
same,MIC,P. aeruginosa [4]; P. aeruginosa test organism of the sputum time-kill assay,(MIC = 0.5)
same,MIC50,P. aeruginosa [4]; [8],1 µg/mL
same,MIC90,P. aeruginosa [4]; [8],2 µg/mL
same,MIC Range,P. aeruginosa [4]; [8],0.25 to 2 µg/mL
same,MIC50,P. aeruginosa [4]; [9],1 µg/mL
same,MIC90,P. aeruginosa [4]; [9],2 µg/mL
same,MIC Range,P. aeruginosa [4]; [9],0.25 to 2 µg/mL
same,MIC50,P. aeruginosa [4]; [10],1 µg/mL
same,MIC90,P. aeruginosa [4]; [10],2 µg/mL
same,MIC Range,P. aeruginosa [4]; [10],0.25 to 2 µg/mL
same,MIC,P. aeruginosa [4]; XDR P. aeruginosa strain AR-769,2 µg/mL
same,MIC,"P. aeruginosa [4]; […], before serial passage",1 µg/mL
same,activity (MIC) against P. aeruginosa isolates,"P. aeruginosa [4]; all tested isolates, Tables 8-12",highly active
same,GN370 MIC50,P. aeruginosa [4]; [11],0.25 µg/mL
same,GN370 MIC90,P. aeruginosa [4]; [11],0.5 µg/mL
same,GN370 MIC Range,"P. aeruginosa [4]; carbapenem-resistant P. aeruginosa isolates (n = 12), in µg/mL",0.0625-1
same,MIC50,P. aeruginosa [4]; [12],0.25 µg/mL
same,MIC90,P. aeruginosa [4]; [12],1 µg/mL
same,MIC Range,"P. aeruginosa [4]; mucoid P. aeruginosa isolates (n = 11), in µg/mL",0.0625-1
same,MIC50,P. aeruginosa [4]; [13],0.25 µg/mL
same,MIC90,P. aeruginosa [4]; [13],1 µg/mL
same,MIC Range,"P. aeruginosa [4]; α-hemolytic P. aeruginosa isolates (n = 13), in µg/mL",0.0625-1
same,MBEC50,A. dolens,32 µg/mL
same,MBEC90,A. dolens,128 µg/mL
same,MBEC Range,A. dolens,4 to 128 µg/mL
same,MBEC50,B. cenocepacia,256 µg/mL
same,change in MIC over serial passage,S. maltophilia [5],no increase in MIC
